In PMC8712518:

B1: peptide deformylase (PDF), unlabeled, with C-terminal His6-tag (enzyme)
chain: MSVLQVLHIPDERLRKVAKPVEEVNAEIQRIVDDMFETMYAEEGIGLAATQVDIHQRIIVIDVSENRDERLVLINPELLEKSGETGIEEGCLSIPEQRALVPRAEKVKIRALDRDGKPFELEADGLLAICIQHEMDHLVGKLFMDYLSPLKQQRIRQKVEKLDRLKARA
B2: PDF(Bpy), peptide deformylase labelled at the C-terminus with Bodipy-FL (enzyme)
chain: MSVLQVLHIPDERLRKVAKPVEEVNAEIQRIVDDMFETMYAEEGIGLAATQVDIHQRIIVIDVSENRDERLVLINPELLEKSGETGIEEGCLSIPEQRALVPRAEKVKIRALDRDGKPFELEADGLLAICIQHEMDHLVGKLFMDYLSPLKQQRIRQKVEKLDRLKARA
modifications: Bodipy-FL on the C-terminal peptide CSDSK-Bpy

Tests used:
[1] = molecular target: RNaseH75-RNC, ribosome-nascent-chain complex carrying a 75 amino acid-long nascent chain of RNaseH (not stated | E. coli) (UniProt P0A7Y4)
[2] = molecular target: proOmpA75-RNC, ribosome-nascent-chain complex carrying a 75 amino acid-long nascent chain of proOmpA (not stated | E. coli) (UniProt P0A910)
[3] = molecular target: DnaK75-RNC, ribosome-nascent-chain complex carrying a 75 amino acid-long nascent chain of DnaK (not stated | E. coli) (UniProt P0A6Y8)
[4] = molecular target: TolB75-RNC, formylated ribosome-nascent-chain complex carrying the 75 N-terminal amino acids of TolB (not stated | E. coli) (UniProt P0A855)
[5] = molecular target: vacant 70S ribosomes from E. coli MRE600 (E. coli); assay: stopped-flow fluorescence kinetics (association); PDF(Bpy) (300 nM) rapidly mixed with 70S ribosomes or TolB75-RNC (420 nM); buffer A; 10 °C; single-exponential fit, apparent rate at one concentration
[6] = molecular target: TolB75-RNC, formylated ribosome-nascent-chain complex carrying the 75 N-terminal amino acids of TolB (not stated | E. coli) (UniProt P0A855); assay: as above
[7] = molecular target: vacant 70S ribosomes from E. coli MRE600 (E. coli); assay: stopped-flow fluorescence kinetics (titration, global fit); PDF(Bpy) (100 nM) mixed with 70S ribosomes (0.5-2 µM); buffer A; 10 °C; global fit to a one-step binding model in KinTek Explorer; Kd,calc = k-1/k1
[8] = molecular target: vacant 70S ribosomes from E. coli MRE600 (E. coli); assay: stopped-flow fluorescence kinetics, extrapolated; rate constants measured at 10 °C, extrapolated to 37 °C by Eq. 3 with single-turnover deformylation of TolB75-RNC as the reference; Kd,calc from the extrapolated rate constants
[9] = molecular target: vacant 70S ribosomes from E. coli MRE600 (E. coli); assay: stopped-flow fluorescence kinetics (chase); preformed 70S-PDF(Bpy) or RNC-PDF(Bpy) complex mixed with excess unlabeled PDF (15 µM); Bodipy fluorescence; buffer A; 10 °C; single-exponential fit
[10] = molecular target: TolB75-RNC after deformylation of the nascent chain by PDF (not stated | E. coli) (UniProt P0A855); assay: as above
[11] = molecular target: vacant 70S ribosomes from E. coli MRE600 (E. coli); assay: fluorescence polarisation; equilibrium titration of PDF(Bpy) (200 nM) with 70S ribosomes; fluorescence anisotropy; 10 °C; corrected for light scattering; hyperbolic fit

Chain of UniProt P0A6Y8 (P0A6Y8 whole entry, looked up, one chain of several): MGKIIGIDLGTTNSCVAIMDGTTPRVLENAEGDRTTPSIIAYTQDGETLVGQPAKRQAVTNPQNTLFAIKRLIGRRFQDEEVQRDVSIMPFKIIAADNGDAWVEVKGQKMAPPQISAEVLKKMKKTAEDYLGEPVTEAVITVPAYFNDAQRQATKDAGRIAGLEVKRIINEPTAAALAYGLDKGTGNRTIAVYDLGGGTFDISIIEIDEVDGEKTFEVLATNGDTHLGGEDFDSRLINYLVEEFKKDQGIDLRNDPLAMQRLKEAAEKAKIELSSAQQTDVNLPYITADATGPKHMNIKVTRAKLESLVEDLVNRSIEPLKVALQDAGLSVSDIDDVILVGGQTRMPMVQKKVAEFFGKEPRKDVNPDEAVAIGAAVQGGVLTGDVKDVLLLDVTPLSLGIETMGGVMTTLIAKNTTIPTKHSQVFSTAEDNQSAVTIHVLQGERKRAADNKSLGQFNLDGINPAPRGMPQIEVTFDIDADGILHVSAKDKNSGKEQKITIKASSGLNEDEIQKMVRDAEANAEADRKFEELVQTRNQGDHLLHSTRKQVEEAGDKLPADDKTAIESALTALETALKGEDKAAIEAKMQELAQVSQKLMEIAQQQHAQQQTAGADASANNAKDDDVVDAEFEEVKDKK
Chain of UniProt P0A7Y4 (P0A7Y4 whole entry, looked up, one chain of several): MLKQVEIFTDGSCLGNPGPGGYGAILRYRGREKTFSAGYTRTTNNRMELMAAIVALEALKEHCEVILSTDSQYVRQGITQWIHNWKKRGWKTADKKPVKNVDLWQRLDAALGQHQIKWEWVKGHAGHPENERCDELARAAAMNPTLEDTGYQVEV
Chain of UniProt P0A910 (P0A910 whole entry, looked up, one chain of several): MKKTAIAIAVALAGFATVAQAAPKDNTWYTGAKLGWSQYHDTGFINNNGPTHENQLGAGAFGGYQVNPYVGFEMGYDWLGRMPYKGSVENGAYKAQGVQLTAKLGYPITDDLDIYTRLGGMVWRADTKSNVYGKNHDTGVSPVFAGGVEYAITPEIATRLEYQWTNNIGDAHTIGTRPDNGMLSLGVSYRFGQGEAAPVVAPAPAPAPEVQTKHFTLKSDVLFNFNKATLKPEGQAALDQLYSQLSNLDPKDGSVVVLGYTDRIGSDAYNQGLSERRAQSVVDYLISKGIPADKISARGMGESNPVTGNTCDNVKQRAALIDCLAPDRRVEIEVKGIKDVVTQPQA

Binder | KM of nascent-chain deformylation by PDF, multiple turnover, 37 °C (TLC of f[35S]Met and [35S]Met) [1] | KM of nascent-chain deformylation by PDF, multiple turnover, 37 °C (TLC of f[35S]Met and [35S]Met) [2] | KM of nascent-chain deformylation by PDF, multiple turnover, 37 °C (TLC of f[35S]Met and [35S]Met) [3] | KM of nascent-chain deformylation by PDF, multiple turnover, 37 °C (TLC of f[35S]Met and [35S]Met) [4] | apparent rate of binding at 420 nM 70S ribosomes [5] | apparent rate of binding at 420 nM RNC [6] | Kd [7] | koff [7] | kon [7] | Kd [8] | koff [8] | kon [8] | koff [9] | koff [10] | Kd [11]
B1 | 0.6 µM | 0.3 µM | 0.5 µM | 0.25 µM |  |  |  |  |  |  |  |  |  |  | 
B2 |  |  |  |  | 44 s⁻¹ | 40 s⁻¹ | 2.1 µM | 29 s⁻¹ | 1.4e+07 M⁻¹ s⁻¹ | 2 µM | 70 s⁻¹ | 4e+07 M⁻¹ s⁻¹ | 33 s⁻¹ | 27 s⁻¹ | 2.1 µM
